The target in this assay is tubulin heterodimer (porcine/bovine brain tubulin) (not stated (porcine or bovine brain)) (UniProt Q6B856). Put plainly: ITC; PN2-3 proteins/peptides titrated into tubulin in the cell; 15 °C; 1xBRB80 (80 mM PIPES-K, 1 mM MgCl2, 1 mM EGTA, pH 6.8); one set of binding sites model; tubulin 9 μM for wild type and mutant PN2-3.

The Kd is the constant that tells how readily two partners part at equilibrium. KQPFLKRGEGLARFTNAKSKFQK [PN2-3C peptide (PN2-3's C-terminus, aa 372-394 of CPAP)] registered a Kd of 4.8 µM.
